Laboratory results: patent US20040018957A1, “Crystal structure of a Ras-P13K complex” (priority 2000, published 2004)
Positions count from the first letter of the chain named. In names and notes the source's numbering stands.

B1: V223K: tighter-binding PI3Kγ mutant used for co-crystallisation with Ras (protein, UniProt P48736 1-1102, looked up, variant V223K)
Phosphatidylinositol …: MELENYKQPVVLREDNCRRRRRMKPRSAAASLSSMELIPIEFVLPTSQRKCKSPETALLHVAGHGNVEQMKAQVWLRALETSVAADFYHRLGPHHFLLLYQKKGQWYEIYDKYQVVQTLDCLRYWKATHRSPGQIHLVQRHPPSEESQAFQRQLTALIGYDVTDVSNVHDDELEFTRRGLVTPRMAEVASRDPKLYAMHPWVTSKPLPEYLWKKIANNCIFIKIHRSTTSQTIKVSPDDTPGAILQSFFTKMAKKKSLMDIPESQSEQDFVLRVCGRDEYLVGETPIKNFQWVRHCLKNGEEIHVVLDTPPDPALDEVRKEEWPLVDDCTGVTGYHEQLTIHGKDHESVFTVSLWDCDRKFRVKIRGIDIPVLPRNTDLTVFVEANIQHGQQVLCQRRTSPKPFTEEVLWNVWLEFSIKIKDLPKGALLNLQIYCGKAPALSSKASAESPSSESKGKVQLLYYVNLLLIDHRFLLRRGEYVLHMWQISGKGEDQGSFNADKLTSATNPDKENSMSISILLDNYCHPIALPKHQPTPDPEGDRVRAEMPNQLRKQLEAIIATDPLNPLTAEDKELLWHFRYESLKHPKAYPKLFSSVKWGQQEIVAKTYQLLARREVWDQSALDVGLTMQLLDCNFSDENVRAIAVQKLESLEDDDVLHYLLQLVQAVKFEPYHDSALARFLLKRGLRNKRIGHFLFWFLRSEIAQSRHYQQRFAVILEAYLRGCGTAMLHDFTQQVQVIEMLQKVTLDIKSLSAEKYDVSSQVISQLKQKLENLQNSQLPESFRVPYDPGLKAGALAIEKCKVMASKKKPLWLEFKCADPTALSNETIGIIFKHGDDLRQDMLILQILRIMESIWETESLDLCLLPYGCISTGDKIGMIEIVKDATTIAKIQQSTVGNTGAFKDEVLNHWLKEKSPTEEKFQAAVERFVYSCAGYCVATFVLGIGDRHNDNIMITETGNLFHIDFGHILGNYKSFLGINKERVPFVLTPDFLFVMGTSGKKTSPHFQKFQDICVKAYLALRHHTNLLIILFSMMLMTGMPQLTSKEDIEYIRDALTVGKNEEDAKKYFLDQIEVCRDKGWTVQFNWFLHLVLGIKQGEKHSA
B2: K234A: PI3Kγ mutant of a switch II contact residue (protein, UniProt P48736 1-1102, looked up, variant K234A)
Phosphatidylinositol …: B1 Phosphatidylinositol … with K223V, K234A
B3: T232D: PI3Kγ RBD mutant (protein, UniProt P48736 1-1102, looked up, variant T232D)
Phosphatidylinositol …: B1 Phosphatidylinositol … with K223V, T232D
B4: E267K: tighter-binding PI3Kγ mutant (protein, UniProt P48736 1-1102, looked up, variant E267K)
Phosphatidylinositol …: B1 Phosphatidylinositol … with K223V, E267K
B5: Lys-254: PI3Kγ mutant, Lys-254 mutated to Ala (protein, UniProt P48736 1-1102, looked up, variant K254A)
Phosphatidylinositol …: B1 Phosphatidylinositol … with K223V, K254A
B6: K256A: PI3Kγ RBD mutant (protein, UniProt P48736 1-1102, looked up, variant K256A)
Phosphatidylinositol …: B1 Phosphatidylinositol … with K223V, K256A
B7: D260A: PI3Kγ RBD mutant (protein, UniProt P48736 1-1102, looked up, variant D260A)
Phosphatidylinositol …: B1 Phosphatidylinositol … with K223V, D260A
B8: K255A: PI3Kγ RBD mutant (protein, UniProt P48736 1-1102, looked up, variant K255A)
Phosphatidylinositol …: B1 Phosphatidylinositol … with K223V, K255A
B9: R226A: PI3Kγ RBD mutant (protein, UniProt P48736 1-1102, looked up, variant R226A)
Phosphatidylinositol …: B1 Phosphatidylinositol … with K223V, R226A
B10: K251A: PI3Kγ RBD mutant (protein, UniProt P48736 1-1102, looked up, variant K251A)
Phosphatidylinositol …: B1 Phosphatidylinositol … with K223V, K251A

target: N-Ras.GDP (Homo sapiens, UniProt P01111); assay: Binding of PI3Kγ constructs to N-Ras.GDP; conditions: not given
Sequence (P01111 whole entry): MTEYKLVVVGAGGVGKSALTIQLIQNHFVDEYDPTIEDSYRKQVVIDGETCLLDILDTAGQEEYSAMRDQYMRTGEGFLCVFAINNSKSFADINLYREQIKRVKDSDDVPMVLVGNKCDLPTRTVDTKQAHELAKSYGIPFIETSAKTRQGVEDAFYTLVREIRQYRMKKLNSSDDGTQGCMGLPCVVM

| Molecule | binding to N-Ras.GDP |
| --- | --- |
| B1 | Neither the wild-type protein, the pseudo wild-type (V327A, see methods), nor the V223K mutant exhibit detectable binding |

target: T1, N-Ras.mant-GMPPNP (Homo sapiens, UniProt P01111); assay: Fluorescence anisotropy titration of PI3Kγ 144-1102 into N-Ras.mant-GMPPNP; format: binding; conditions: mutants in the 144-1102 construct, FIG. 2A
T1 construct: fluorescence anisotropy of full length, unmodified N-Ras.mant-GMPPNP
T1 sequence (P01111 whole entry): as above
Procedure: Mant-nucleotides were synthesised as described previously (Jameson and Eccleston, 1997). N-Ras and H-Ras mutants were loaded with mant-GMPPNP as in (Moore et al., 1993), gel filtered into running buffer (20 mM Tris pH 7.5, 2 mM MgCl2, 1 mM DTT), and frozen at −80° C. The concentration of Ras.mant-GMPPNP was determined by measuring the absorbance of the mant group at […] with ε=5700 M^−1 cm^−1 (Hiratsuka, 1983). For binding assays, the 144-1102 human PI3Kγ was titrated into a 1 μM solution of fill length, unmodified N-Ras.mant-GMPPNP. Data were collected with SLM 8000 S and ISS PC1 spectrofluorimeters, set up in the T-format and L-format, respectively, with prism polarizers. All measurements were taken at 20° C. with a λex of 366 nm. Both emission PMTs were fitted with 399 nm cutoff filters. Five measurements of each data point were obtained and averaged. Data were fitted to the binding equation.

| effect of PI3Kγ RBD mutation on binding to Ras | Molecule |
| --- | --- |
| tighter-binding | B1 |
| probably increases the Kd | B2 |
| eliminate binding | B3 |
| tighter-binding | B4 |
| greatly lowers the affinity | B5 |
| eliminate binding | B8 |
| eliminate binding | B10 |

| Molecule | effect of PI3Kγ RBD mutation on binding to Ras |
| --- | --- |
| B6 | reduce binding by up to an order of magnitude |
| B7 | reduce binding by up to an order of magnitude |
| B9 | reduce binding by up to an order of magnitude |
